Data on one molecule can be found in patent US20240101647A1 (published 2024).

This experiment addresses monomeric human Fc-fused SARS-CoV-2_RBD-SD1 (UniProt P0DTC2 319-591). Nature of the experiment: BLI.

B1: VHH3.89 (VHH)
VHH: QVQLQESGGGLVQPGGSLRLSCAASGFTLDYYAIGWFREVPGKEREGLSRIDSSDGSTYYADSVKGRFTISRDNTKNIVYLQMNNLKPEDTAVYYCATDPIIQGRNWYWTGWGQGTQVTVSS
As to B1, the koff is 0.0002 s⁻¹.
